{
  "source": "patent US7358088B2",
  "about": "“Peptides and compositions which modulate apoptosis” (ImmunoGen, Inc., priority 1995, dated 2008)",
  "molecules": {"B1": {"name": "Bip1a ΔGD: Bip1a mutant with small deletion removing the conserved GD domain motif (protein)", "chain": "MSEVRPLSRDILMETLLYEQLLEPPTMEVLGMTDSEEDLDPMEDFDSLECMEGSDALRAPRLAQLSEVAMHSLGLAFIYDQTEDIRDVLRSFMDGFTTLKENIMRFWRSPNPGSWVSCEQVLLALLLLLALLLPLLSGGLHLLLK"}, "B2": {"name": "Bax ΔGD: Bax mutant with small deletion removing the conserved GD domain motif (protein)", "chain": "MDGSGEQPRGGGPTSSEQIMKTGALLLQGFIQDRAGRMGGEAPELALDPVPQDASTKKMELQRMIAAVDTDSPREVFFRVAADMFSDGNFNWGRVVALFYFASKLVLKALCTKVPELIRTIMGWTLDFLRERLLGWIQDQGGWDGLLSYFGTPTWQTVTIFVAGVLTASLTIWKKMG"}, "B3": {"name": "Bip1a: Bcl-2 interacting protein that induces apoptosis, lacks BH1 and BH2 (protein)", "chain": "MSEVRPLSRDILMETLLYEQLLEPPTMEVLGMTDSEEDLDPMEDFDSLECMEGSDALALRLACIGDEMDVSLRAPRLAQLSEVAMHSLGLAFIYDQTEDIRDVLRSFMDGFTTLKENIMRFWRSPNPGSWVSCEQVLLALLLLLALLLPLLSGGLHLLLK"}},
  "key": {"Rat-1 cells": {"test_system": "Rat-1 cells", "experiment": "Transient transfection cell killing assay (loss of β-galactosidase-positive blue cells)", "assay_type": "cell-based", "settings": "for cell killing activity (reduction in number of blue β-gal expressing cells): Rat-1 cells co-transfected with β-galactosidase marker plasmid, 24 hours post transfection, relative to control vector", "description": "The transient transfection assay procedure is similar to that previously described for detecting apoptosis induced by IL-1E-converting enzyme (Miura et al., Cell 75: 653-660 (1993); Kumar et al., Genes Dev. 8: 1613-1626 (1994); Wang et al., Cell 78: 739-750 (1994). One day prior to transfection, Rat-1 cells were plated in 24 well dishes at 3.5X10^4 cells/well. The following day, the cells were transfected with a marker plasmid encoding β-galactosidase (0.16 μg), in combination with an expression plasmid encoding Bak (0.42 μg), by the Lipofectamine procedure (Gibco/BRL). At 24 hours post transfection, cells were fixed and stained with X-Gal to detect J-galactosidase expression in cells that received plasmid DNA (Miura et al., supra). The number of blue cells was counted by microscopic examination and scored as either live (flat blue cells) or dead (round blue cells). The cell killing activity of Bak in this assay is manifested by a large reduction in the number of blue cells obtained relative to co-transfection of the β-gal plasmid with a control expression vector (i.e., with no bak cDNA insert).\nThe interpretation that loss of blue cells reflects the cell killing function of Bak is supported by a variety of observations: • 1. Rat-1 cells are rapidly killed by enforced Bak expression in stable transfection assays; • 2.\nEnforced bak expression induces apoptosis in stable Rat-1 cell lines transfected with an inducible bak expression plasmid. In order to more rapidly assess the cell killing function of a large number of bak mutants, a transient transfection assay was employed. Rat-1 cells were transfected with a marker plasmid encoding β-galactosidase, in combination with an expression plasmid encoding Bak, or various control plasmids."}, "[1]": {"target": "T1, Bcl-xL/Bak GD domain interaction (Homo sapiens, UniProt Q07817)", "T1 construct": "made in house; host or cells: E. coli", "T1 sequence (Q07817 whole entry, the tested form may be a part)": "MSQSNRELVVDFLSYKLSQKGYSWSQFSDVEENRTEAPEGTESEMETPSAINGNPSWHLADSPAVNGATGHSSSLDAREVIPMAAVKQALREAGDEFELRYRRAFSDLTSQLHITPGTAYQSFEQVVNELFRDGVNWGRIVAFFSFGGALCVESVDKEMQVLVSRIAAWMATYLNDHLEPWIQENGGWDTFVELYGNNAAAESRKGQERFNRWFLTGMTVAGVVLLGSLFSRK", "experiment": "High through-put screening assay 2: GST-Bcl-xL binding to biotinylated Bak GD peptide on neutravidin wells, ELISA", "settings": "competing peptide added, ELISA signal", "description": "An assay was developed to screen for compounds that block the interaction between the Bcl-2 homologs, Bcl-xL and Bak. A synthetic peptide corresponding to the Bak GD binding domain ([…] [SEQ ID NO: 35]) was biotinylated and bound to wells coated with neutravidin. […] Peptides encompassing the GD domain from various Bcl-2 family members were tested for their ability to block GD domain-mediated interactions in this assay. Peptides tested: Bcl-w [SEQ ID NO: 39] […] ([…]), Bak [SEQ ID NO: 36]([…]), Bak-15 [SEQ ID NO: 37] ([…]), Bak-15L78A [SEQ ID NO: 38] ([…]), control (no peptide).\nIn a modification of the high through-put screening assay 1 described herein, wells are coated with an avidin derivative, to which a biotinylated peptide/protein is bound. A GST-fusion protein that can interact with the biotinylated peptide/protein is added in the presence or absence of test compounds. The plates are incubated and then unbound GST-fusion protein is removed by washing. The amount of GST-fusion protein specifically bound to the tethered peptide/protein is determined by ELISA using an anti-GST antibody conjugated to horse radish peroxidase. Compounds which block the interaction between the biotinylated peptide/protein and the GST-fusion protein cause a decrease in the ELISA signal.\nIn a specific example, an assay was developed to screen for compounds that block the interaction between the Bcl-2 homologs, Bcl-xL and Bak. A biotinylated Bak GD domain peptide (amino acid residues 71-89; N-biotinylated […] [SEQ ID NO: 35]) was bound to wells coated with neutravidin. […] Using this assay, peptides from Bcl-2 family members were identified which block the Bcl-xL/Bak GD domain interaction (FIG. 10)."}, "HeLa cells": {"test_system": "HeLa cells", "experiment": "Microinjection assay, protection from anti-Fas and cycloheximide induced death", "assay_type": "cell-based", "settings": "for effect on cell viability: HeLa cells, microinjected peptide, absence of anti-Fas treatment", "description": "HeLa cells (>100 cells/condition) were microinjected without (buffer) or with GST-Bcl-xL (0.3 mg/ml) in the absence or presence of GD domain peptides (0.5 mg/ml) and the recovery of live injected cells was determined after treatment with anti-Fas and cycloheximide for 18 hours. FITC-dextran was coinjected as a marker. A 15-amino acid Bak GD domain peptide (Bak-15; residues 73-87; […] [SEQ ID NO: 37]) and a mutant Bak GD domain peptide with an alanine substitution at leucine 78 (Bak-15L78A; […] [SEQ ID NO: 38]) were tested.\nA cell-based microinjection assay is provided for the identification of agents that antagonize GD domain-mediated interactions and inhibit the cell death suppression activity of Bcl-xL and/or Bcl-2. One or preferably more than one cells are microinjected with a death suppressor protein, such as Bcl-xL or Bcl-2, which protects the cells from induction of cell death by an apoptosis-inducing agent, in the presence of a test compound, composition or agent. Compounds that bind to the death suppressor protein and prevent its protective function, resulting in the death of the microinjected cells, can thereby be identified.\nThe ability of GD domain peptide variants to inhibit the function of Bcl-xL correlated with their ability to bind to Bcl-xL (see FIG. 10). […] Similar results were obtained with MRC5 human diploid fibroblasts where protection from anti-Fas-induced death by microinjected Bcl-xL was inhibited by co-injection of the wild-type, but not mutant, Bak BH3 peptide.\nMicroinjection procedure: HeLa cells were plated in complete DMEM in 60 mm dishes at 2.4×10^5 cells per dish. […] Following injection, the cells were returned to the incubator and after 1 hour the number of injected cells was determined by fluorescence microscopy. Cells were then treated with anti-Fas mAb (7C11) and cycloheximide ([…]) and the recovery of injected cells remaining after 18 hours was determined."}, "Bcl-xL": {"target": "Bcl-xL (Homo sapiens, UniProt Q07817)", "sequence (Q07817 whole entry)": "as the sequence (Q07817 whole entry, the tested form may be a part) above", "experiment": "In vitro protein binding assay, 35S labeled protein with GST-Bcl-xL on glutathione-agarose beads", "design": "made in house; host or cells: E. coli", "settings": "tested both in vitro and in transfected COS cells", "description": "A). Bak/Bcl-xL interactions measured in vitro. ^35S labeled in vitro translated Bak (lane 1) was mixed either with GST-Bcl-xL (lane 2) or GST (lane 3). The complexes were captured on glutathione-agarose beads, and bound ^35S labeled Bak protein was detected by electrophoresis on SDS polyacrylamide gels followed by autoradiography.\nThe beads were removed by centrifugation and the supernatants were incubated with GST or GST-Bcl-xL (final concentration […]) at 4° C. for 1 hour. The GST fusion proteins and any interacting proteins were recovered by incubation for 1 hour with an additional […] of GSH-agarose beads. The beads were washed twice with NP-40 lysis buffer followed by two washes with NP-40 lysis buffer without NP-40. Proteins were eluted from the beads by incubation in SDS-PAGE sample buffer at 100° C. for 5 min and loaded onto 4-20% SDS-polyacrylamide gels. Following electrophoresis, gels were fixed and incubated in a fluorography enhancing solution (Amplify; Amersham). The gels were dried and subjected to autoradiography at −70° C."}},
  "note": "Ends that are not written are not given here.",
  "data": [
    {"molecule": "Bcl-xL: long form of bcl-x product, suppresses apoptosis", "values": [
      {"measurement": "restoration of number of blue cells on co-transfection with Bak", "setting": "Rat-1 cells; Rat-1 cells, co-transfection of Bak with Bcl-xL", "value": "partially restored"}
    ]},
    {"molecule": "STKKLSECLKRIGDELDSNH [Bax peptide, peptide encompassing the GD domain from Bax]", "values": [
      {"measurement": "inhibition of Bcl-xL/Bak GD domain binding", "setting": "[1]", "value": "concentration-dependent inhibition of binding"}
    ]},
    {"molecule": "QVGRQAAIIGDDINR [Bak-15L78A]", "values": [
      {"measurement": "effect on cell viability", "setting": "HeLa cells", "value": "neither peptide had an effect on cell viability"}
    ]},
    {"molecule": "QVGRQLAIIGDDINR [Bak-15]", "values": [
      {"measurement": "effect on cell viability", "setting": "HeLa cells", "value": "neither peptide had an effect on cell viability"}
    ]},
    {"molecule": "QVG: truncated Bak protein derivative corresponding to amino acids 73-123 (QVGRQLAIIGDDINRRYDSEFQTMLQHLQPTAENAYEYFTKIATSLFESGI; not fully specified)", "values": [
      {"measurement": "cell killing activity (reduction in number of blue β-gal expressing cells)", "setting": "Rat-1 cells", "value": "significantly reduced the number of blue cells"},
      {"measurement": "Bcl-xL binding capacity", "setting": "Bcl-xL", "value": "bound Bcl-xL"}
    ]},
    {"molecule": "AADPLHQAMRAAGDEFETRF [Bcl-w peptide]", "values": [
      {"measurement": "inhibition of Bcl-xL/Bak GD domain binding", "setting": "[1]", "value": "did not block binding"}
    ]},
    {"molecule": "GST-Bcl-xL: bacterially-expressed GST fusion protein of the survival protein Bcl-xL", "values": [
      {"measurement": "protection from death induced by Fas ligation", "setting": "HeLa cells; HeLa cells microinjected with 0.3 mg/ml protein, anti-Fas and cycloheximide 18 hours", "value": "efficiently protected HeLa cells from death"}
    ]},
    {"molecule": "PEM: truncated Bak protein derivative corresponding to amino acids 58-103 (PEMVTLPLQPSSTMGQVGRQLAIIGDDINRRYDSEFQTMLQHLQPT; not fully specified)", "values": [
      {"measurement": "Bcl-xL binding capacity", "setting": "Bcl-xL", "value": "bound Bcl-xL"}
    ]},
    {"molecule": "GSDALALRLACIGDEMDVSL [Bip1a peptide, peptide encompassing the GD domain from Bip1a]", "values": [
      {"measurement": "inhibition of Bcl-xL/Bak GD domain binding", "setting": "[1]", "value": "concentration-dependent inhibition of binding"}
    ]},
    {"molecule": "Bax: Bcl-2 homolog and Bcl-2 interacting protein that induces apoptosis", "values": [
      {"measurement": "cell killing activity (reduction in number of blue β-gal expressing cells)", "setting": "Rat-1 cells", "value": "eliminate blue cells"},
      {"measurement": "Bcl-xL binding capacity", "setting": "Bcl-xL", "value": "interact specifically with Bcl-xL"}
    ]},
    {"molecule": "B1", "values": [
      {"measurement": "cell killing activity (reduction in number of blue β-gal expressing cells)", "setting": "Rat-1 cells", "value": "impaired in their ability to eliminate blue cells"},
      {"measurement": "Bcl-xL binding capacity", "setting": "Bcl-xL", "value": "no longer have the capacity to interact with Bcl-xL"}
    ]},
    {"molecule": "B2", "values": [
      {"measurement": "cell killing activity (reduction in number of blue β-gal expressing cells)", "setting": "Rat-1 cells", "value": "impaired in their ability to eliminate blue cells"},
      {"measurement": "Bcl-xL binding capacity", "setting": "Bcl-xL", "value": "no longer have the capacity to interact with Bcl-xL"}
    ]},
    {"molecule": "B3", "values": [
      {"measurement": "cell killing activity (reduction in number of blue β-gal expressing cells)", "setting": "Rat-1 cells", "value": "eliminate blue cells"},
      {"measurement": "Bcl-xL binding capacity", "setting": "Bcl-xL", "value": "interact specifically with Bcl-xL"}
    ]}
  ]
}
